# Reference: doi:10.1101/2025.11.19.685371
# Molecular target: pre-formed Aβ oligomers (Aβ42) (UniProt P05067)
# Assay: fluorescence correlation spectroscopy
substance,measurement,value
pre-formed Aβ oligomers (Aβ42) (from UniProt P05067 672-713) (complex),fraction of fluorescently labeled Aβ in oligomers,59%
